# Laboratory results: US20130196383A1, “Method of Producing Dicer” (published 2013)
# T1: MBP-ATPase/hel, ATPase/helicase domain of human Dicer (1-604) fused with maltose-binding protein, bacterially … (human, UniProt Q9UPY3 1-604)
# T1 construct: not shown: the His6 tag and the linker/TEV site lette
# T1 sequence: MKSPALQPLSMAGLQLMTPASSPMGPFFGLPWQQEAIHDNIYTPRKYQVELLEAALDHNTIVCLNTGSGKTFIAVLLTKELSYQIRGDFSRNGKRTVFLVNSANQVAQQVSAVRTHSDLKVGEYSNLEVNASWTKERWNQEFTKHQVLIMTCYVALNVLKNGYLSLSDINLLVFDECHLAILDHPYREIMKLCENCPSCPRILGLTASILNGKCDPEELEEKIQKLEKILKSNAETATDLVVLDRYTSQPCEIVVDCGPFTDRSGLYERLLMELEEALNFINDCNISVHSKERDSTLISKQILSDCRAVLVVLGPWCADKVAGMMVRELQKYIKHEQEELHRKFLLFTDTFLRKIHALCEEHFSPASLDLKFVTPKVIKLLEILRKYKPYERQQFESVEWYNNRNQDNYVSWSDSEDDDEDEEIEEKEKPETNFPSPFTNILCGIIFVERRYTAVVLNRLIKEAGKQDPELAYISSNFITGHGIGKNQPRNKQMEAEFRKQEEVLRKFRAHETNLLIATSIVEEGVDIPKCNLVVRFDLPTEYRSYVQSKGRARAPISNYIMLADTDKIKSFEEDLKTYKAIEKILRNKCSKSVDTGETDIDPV
# T2: hDcr-CΔRBD fragment of human Dicer (Homo sapiens, UniProt Q9UPY3 SEQ:1235-1844)
# T2 chain: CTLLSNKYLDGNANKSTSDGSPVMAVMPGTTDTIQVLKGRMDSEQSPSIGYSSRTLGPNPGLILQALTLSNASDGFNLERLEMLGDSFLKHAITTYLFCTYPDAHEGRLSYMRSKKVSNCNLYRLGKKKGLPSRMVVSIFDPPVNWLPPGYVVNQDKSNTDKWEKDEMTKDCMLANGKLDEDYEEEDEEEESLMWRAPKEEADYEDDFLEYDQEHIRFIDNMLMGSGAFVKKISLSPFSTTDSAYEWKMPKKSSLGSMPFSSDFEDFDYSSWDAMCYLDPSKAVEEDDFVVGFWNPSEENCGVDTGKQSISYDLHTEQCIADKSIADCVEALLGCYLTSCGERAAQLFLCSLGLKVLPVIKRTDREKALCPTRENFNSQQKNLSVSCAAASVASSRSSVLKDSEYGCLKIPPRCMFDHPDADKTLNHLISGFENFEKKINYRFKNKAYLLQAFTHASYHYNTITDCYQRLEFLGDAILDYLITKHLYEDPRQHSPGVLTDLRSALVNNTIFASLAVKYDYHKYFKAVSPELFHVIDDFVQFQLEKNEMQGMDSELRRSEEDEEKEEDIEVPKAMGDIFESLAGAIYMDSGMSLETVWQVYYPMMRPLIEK
# T3: MBP-ATPase/helicase fragment of human Dicer (Homo sapiens, UniProt Q9UPY3 SEQ:1-604)
# T3 chain: T1 sequence
# T4: hDcr-C (RNase IIIa/IIIb-dsRBD) fragment of human Dicer (Homo sapiens, UniProt Q9UPY3 SEQ:1235-1922)
# T4 chain: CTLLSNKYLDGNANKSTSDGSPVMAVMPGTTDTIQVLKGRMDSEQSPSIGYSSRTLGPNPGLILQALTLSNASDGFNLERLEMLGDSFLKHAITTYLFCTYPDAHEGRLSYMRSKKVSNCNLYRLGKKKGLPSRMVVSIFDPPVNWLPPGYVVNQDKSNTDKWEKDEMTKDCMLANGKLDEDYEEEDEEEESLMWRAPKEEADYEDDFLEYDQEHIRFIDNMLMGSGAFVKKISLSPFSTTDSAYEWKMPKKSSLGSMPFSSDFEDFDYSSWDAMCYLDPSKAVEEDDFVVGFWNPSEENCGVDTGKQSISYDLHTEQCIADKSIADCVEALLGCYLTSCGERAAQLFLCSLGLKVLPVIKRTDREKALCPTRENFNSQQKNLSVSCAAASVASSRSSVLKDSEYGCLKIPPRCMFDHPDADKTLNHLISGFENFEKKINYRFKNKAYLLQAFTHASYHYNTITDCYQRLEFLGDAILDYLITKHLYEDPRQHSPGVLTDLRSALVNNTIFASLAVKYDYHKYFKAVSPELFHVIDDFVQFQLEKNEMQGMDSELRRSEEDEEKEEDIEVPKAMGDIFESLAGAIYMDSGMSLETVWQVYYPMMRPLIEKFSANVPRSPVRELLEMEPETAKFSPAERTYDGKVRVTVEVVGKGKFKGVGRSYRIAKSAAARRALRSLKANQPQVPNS
# T5: hDcr-CΔRBD, hDcr-C lacking the C-terminal dsRBD (1235-1844), bacterially expressed (human, UniProt Q9UPY3 1235-1844)
# T5 construct: also called hDcr-CARBD
# T5 sequence: T2 chain
# T6: hDcr-C, C-terminal fragment of human Dicer (1235-1922), bacterially expressed (human, UniProt Q9UPY3 1235-1922)
# T6 construct: Expressed in E. coli from the pHMGWA-His6-MBP destination vector via pENTR/TEV/D-TOPO
# T6 sequence: T4 chain
# B1: human TAR-RNA binding protein (hTRBP2), recombinant (other, UniProt Q15633 1-366, looked up)
# chain: MSEEEQGSGTTTGCGLPSIEQMLAANPGKTPISLLQEYGTRIGKTPVYDLLKAEGQAHQPNFTFRVTVGDTSCTGQGPSKKAAKHKAAEVALKHLKGGSMLEPALEDSSSFSPLDSSLPEDIPVFTAAAAATPVPSVVLTRSPPMELQPPVSPQQSECNPVGALQELVVQKGWRLPEYTVTQESGPAHRKEFTMTCRVERFIEIGSGTSKKLAKRNAAAKMLLRVHTVPLDARDGNEVEPDDDHFSIGVGSRLDGLRNRGPGCTWDSLRNSVGEKILSLRSCSLGSLGALGPACCRVLSELSEEQAFHVSYLDIEELSLSGLCQCLVELSTQPATVCHGSATTREAARGEAARRALQYLKIMAGSK
# notes: Purified recombinant protein
# B2: 21ab (dsRNA)
# RNA 1: UAUACAAUGUGCUAGCUUUCU
# RNA 2: AAAGCUAGCACAUUGUAUAGU
# B3: DP, tandem DUF283-PAZ domains of human Dicer (605-1068), bacterially expressed (other)
# chain: MDDDDVFPPYVLRPDDGGPRVTINTAIGHINRYCARLPSDPFTHLAPKCRTRELPDGTFYSTLYLPINSPLRASIVGPPMSCVRLAERVVALICCEKLHKIGELDDHLMPVGKETVKYEEELDLHDEEETSVPGRPGSTKRRQCYPKAIPECLRDSYPRPDQPCYLYVIGMVLTTPLPDELNFRRRKLYPPEDTTRCFGILTAKPIPQIPHFPVYTRSGEVTISIELKKSGFMLSLQMLELITRLHQYIFSHILRLEKPALEFKPTDADSAYCVLPLNVVNDSSTLDIDFKFMEDIEKSEARIGIPSTKYTKETPFVFKLEDYQDAVIIPRYRNFDQPHRFYVADVYTDLTPLSKFPSPEYETFAEYYKTKYNLDLTNLNQPLLDVDHTSSRLNLLTPRHLNQKGKALPLSSAEKRKAKWESLQNKQILVPELCAIHPIPASLWRKAVCLPSILYRLHCLLTAE
# notes: Expressed in E. coli from the pHMGWA-His6-MBP vector; also called middle domains of hDcr
# Assays:
# [1] = target: T1, MBP-ATPase/hel, ATPase/helicase domain …; experiment: size exclusion and pull-down (brief figure description)
# Method: Six microgram of both of hTRBP2 and mbp-ATPase/hel-HA proteins were mixed with 15 μl of anti-hemagglutinin (anti-HA) antibody-coupled agarose beads in 1× phosphate-buffered saline (PBS) buffer (Sigma, Saint Louis, Mo.) and incubated in cold room and rocked 60 min. The mixture was pelleted by 30 sec spin at 10,000×g and then washed once with 1×PBS and followed by 5 times with the washing buffer of 20 mM Hepes (pH 7.5), 250 mM NaCl, 1% glycerol and 0.1% Triton X-100. After the last wash, the pellet was boiled for 3 min in 1.2×SDS protein loading buffer. As a control, hTRBP2 alone was also processed in the same way.
# ATPase/Helicase domain of hDcr interacts with TRBP. A. Schematic representation of bacterially expressed ATPase/hel domain tagged with MBP. B. The interaction of MBP-ATPase/hel fragment with hTRBP2. A pre-incubated mixture of the MBP-ATPase/hel fragment with 3-fold excess of hTRBP2 was fractionated with a Superdex 200 size-exclusion column (top panel, elution profile). […] The excess hTRBP2 elutes in the second peak. C. MBP-ATPase/hel can pull-down hTRBP2. The MBP-ATPase/hel-domain was purified with a C-terminal hemagglutinin (HA) epitope tag. The two purified proteins (30 pmol of hDcr and 130 pmol of hTRBP2) were incubated on ice with anti-HA antibody agarose beads (Sigma-Aldrich) for 60 min prior to several washes. The bound proteins are eluted via boiling with 1.2×SDS buffer. […]
# [2] = target: T2, hDcr-CΔRBD fragment of human Dicer; experiment: filter; out of detectable limit; conditions: tags: expressed from pHMGWA-His6-MBP vector, E. coli; label: 5'-32P on one strand; siRNA duplex, 19 bp, Dicer product mimic
# Method: (§1) Filter binding assays of hDcr and different hDcr fragments were performed in the same way as previously described (7). Briefly, serial dilutions of hDcr protein were incubated in a buffer containing 20 mM Tris-HCl (pH 7.5), 25 mM NaCl, 5 mM EDTA, 1 mM dithiothreitol (DTT), 1% glycerol and ˜0.5-1 nM (1500 CPM) of 5′-end ³²P-labeled duplex RNA substrate (one strand was labeled) at room temperature for 60 min in a 30 μl of total volume. Following incubation, a 25 μl aliquot of each reaction was applied to a dot-blot apparatus equipped with three membranes: Tuffryn, Protran and Nytran (from top to bottom). After drying, the bound (on Protran) or free (on Nytran) RNAs were quantified by a Phosphorimager (GE Healthcare). Percent bound RNA, calculated as the ratio of radioactivity detected on the Protran membrane over the total input radioactivity, was plotted as a function of protein concentration. Kd was determined by global fitting to the equation: kobsd=(kₘₐₓ[…]) (Kd+[Dicer])−1, where kobsd is the observed rate constant at a given protein concentration, kₘₐₓ is the maximal rate constant with saturating protein, and Kd is the protein concentration that provides half the maximal rate. Curve fitting was conducted with KaleidaGraph (Synergy Software, Reading, Pa.).
# To establish the relationship between cleavage activity and substrate binding, nitrocellulose filter-binding assays were performed with three kinds of RNAs under non-cleavage conditions: substrate dsRNA ([…]), Dicer product-mimic dsRNA (19-bp) and a pre-miRNA (pre-hlet-7a-1).
# [3] = target: T3, MBP-ATPase/helicase fragment of human …; experiment: filter; out of detectable limit; 5 mM EDTA; conditions: tags: His6-MBP N-terminal fusion (pHMGWA), E. coli; label: 5'-32P on one strand; siRNA duplex, 19 bp, Dicer product mimic
# Method: as §1, with “Pa.). […]” for “Pa.).”
# [4] = target: T4, hDcr-C (RNase IIIa/IIIb-dsRBD) fragment …; experiment: filter; out of detectable limit; almost no binding; conditions: tags: expressed from pHMGWA-His6-MBP vector, E. coli; label: 5'-32P on one strand; siRNA duplex, 19 bp, Dicer product mimic
# Method: as §1, with “Pa.). […]” for “Pa.).”
# [5] = target: T5, hDcr-CΔRBD, hDcr-C lacking the …; experiment: complex formation; method not detailed
# [6] = target: T6, hDcr-C, C-terminal fragment of human …; experiment: size-exclusion chromatography after incubation without RNA
# Method: To assess the role of the PAZ domain in determining Dicer cleavage product length, an attempt was made to express the PAZ domain alone in E. coli. Although this was unsuccessful, a construct including both the PAZ domain and the adjacent DUF283 region yielded soluble protein (hereafter the tandem construct named DP, FIG. 2A). […] To test for a direct protein-protein interaction, hDcr-C and DP polypeptides were incubated together in the absence of RNA and then analyzed by size exclusion chromatography.
# DP forms a stable complex with hDcr-C. A pre-incubated mixture of the hDcr-C fragment with 3-fold excess of DP was analyzed with a Superdex 200 size-exclusion column (top panel, elution profile).
binder,measurement,setting,value
B1,binding result,[1],binds
B2,binding result,[2],no binding
same,binding result,[3],no binding
same,binding result,[4],no binding
B3,binding result,[5],binds
same,binding result,[6],binds
